Measurements taken from publication PMC10935766 (2024).
Where two headings read alike, the source gives them in different places. Values belong to the molecule of their own block, whether it stands above or below them. Non-standard residues stand in square brackets, D forms with d. No end group written: not given here. pY = N[C@@H](Cc1ccc(OP(=O)(O)O)cc1)C(=O)O

Key:
E6AP AZUL (Homo sapiens) [1] = molecular target: E6AP AZUL (Homo sapiens) (UniProt Q05086); conditions: cited from earlier work
E6AP AZUL (Homo sapiens) [2] = molecular target: E6AP AZUL (Homo sapiens) (UniProt Q05086); assay: SPR; conditions: cited from earlier work
E6AP AZUL (Homo sapiens) [3] = molecular target: E6AP AZUL (Homo sapiens) (UniProt Q05086); assay: ITC; conditions: cited from earlier work
E6AP AZUL 24-87 [4] = molecular target: T1, E6AP AZUL 24-87 (Homo sapiens, UniProt Q05086); assay: fluorescence competition (25 nM S337C-Atto610:AZUL)
T1 chain: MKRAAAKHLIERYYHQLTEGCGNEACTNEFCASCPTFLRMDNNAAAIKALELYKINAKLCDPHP

E6AP AZUL 24-87 [5] = molecular target: T1, E6AP AZUL 24-87; assay: fluorescence competition (10 nM S337C-Atto610:AZUL)
E6AP AZUL 24-87 [6] = molecular target: T1, E6AP AZUL 24-87; assay: fluorescence competition (25 nM S358C-acrylodan:AZUL)
E6AP AZUL 24-87 [7] = molecular target: T1, E6AP AZUL 24-87; assay: fluorescence competition (100 nM S358C-acrylodan:AZUL)
E6AP AZUL 24-87 [8] = molecular target: T1, E6AP AZUL 24-87; assay: fluorescence competition (50 nM S358C-acrylodan, 10 nM AZUL)
E6AP AZUL 24-87 [9] = molecular target: T1, E6AP AZUL 24-87; assay: ITC
E6AP AZUL 24-87 [10] = molecular target: T1, E6AP AZUL 24-87; assay: fluorescence (dual probe)
E6AP AZUL 24-87 [11] = molecular target: T1, E6AP AZUL 24-87; assay: fluorescence

Ki (E6AP AZUL 24-87 [4]): 0.78 µM | Ki (E6AP AZUL 24-87 [5]): 0.664 µM | Ki (E6AP AZUL 24-87 [6]): 1.26 µM | Ki (E6AP AZUL 24-87 [7]): 18.2 µM | Ki (E6AP AZUL 24-87 [8]): 0.0285 µM
Molecule: EEDDYDVMQDPEFLQSVLENLPGVDPNNEAIRNAMGSLASQATKD [Rpn10 RAZUL peptide 322-366]

Kd (E6AP AZUL 24-87 [9]): 0.0069 µM
B1: Rpn10 RAZUL S361C 305-377 (protein)
chain: SADIDASSAMDTSEPAKEEDDYDVMQDPEFLQSVLENLPGVDPNNEAIRNAMGSLACQATKDGKKDKKEEDKK

Kd (E6AP AZUL 24-87 [11]): ~0.018 µM | Kd (E6AP AZUL 24-87 [10]): 0.00297 µM
B6: Rpn10 RAZUL S358C-acrylodan 305-377 (protein)
chain: SADIDASSAMDTSEPAKEEDDYDVMQDPEFLQSVLENLPGVDPNNEAIRNAMGSLASQATKDGKKDKKEEDKK
modifications: S358C labeled with acrylodan

Ki (E6AP AZUL 24-87 [8]): 0.0426 µM
Molecule: EEDD[pY]DVMQDPEFLQSVLENLPGVDPNNEAIRNAMGSLASQATKD [Rpn10 RAZUL peptide Y326p 322-366]

Continued, molecule first:

Molecule: Rpn10 322-366 (from UniProt P55036)
Kd (E6AP AZUL (Homo sapiens) [1]): 0.189 µM

Molecule: Rpn10 RAZUL (from UniProt P55036)
Kd (E6AP AZUL (Homo sapiens) [2]): 0.0116 µM | Kd (E6AP AZUL (Homo sapiens) [3]): 0.0081 µM

B2: Rpn10 RAZUL S337C 305-377 (protein)
chain: SADIDASSAMDTSEPAKEEDDYDVMQDPEFLQCVLENLPGVDPNNEAIRNAMGSLASQATKDGKKDKKEEDKK
Kd (E6AP AZUL 24-87 [9]): < 0.03 µM

B3: Rpn10 RAZUL S358C 305-377 (protein)
chain: SADIDASSAMDTSEPAKEEDDYDVMQDPEFLQSVLENLPGVDPNNEAIRNAMGCLASQATKDGKKDKKEEDKK
Kd (E6AP AZUL 24-87 [9]): < 0.03 µM

B4: Rpn10 RAZUL S337C-acrylodan 305-377 (protein)
chain: SADIDASSAMDTSEPAKEEDDYDVMQDPEFLQSVLENLPGVDPNNEAIRNAMGSLASQATKDGKKDKKEEDKK
modifications: S337C labeled with acrylodan
Kd (E6AP AZUL 24-87 [9]): < 0.035 µM

B5: Rpn10 RAZUL S337C-Atto610 305-377 (protein)
chain: SADIDASSAMDTSEPAKEEDDYDVMQDPEFLQSVLENLPGVDPNNEAIRNAMGSLASQATKDGKKDKKEEDKK
modifications: S337C labeled with Atto610
Kd (E6AP AZUL 24-87 [10]): 0.0163 µM
